{"source": "patent US20060239990", "biological_target": "GST-Stat3 fusion protein (UniProt P42227)", "sequence (P42227 whole entry, the tested form may be a part)": "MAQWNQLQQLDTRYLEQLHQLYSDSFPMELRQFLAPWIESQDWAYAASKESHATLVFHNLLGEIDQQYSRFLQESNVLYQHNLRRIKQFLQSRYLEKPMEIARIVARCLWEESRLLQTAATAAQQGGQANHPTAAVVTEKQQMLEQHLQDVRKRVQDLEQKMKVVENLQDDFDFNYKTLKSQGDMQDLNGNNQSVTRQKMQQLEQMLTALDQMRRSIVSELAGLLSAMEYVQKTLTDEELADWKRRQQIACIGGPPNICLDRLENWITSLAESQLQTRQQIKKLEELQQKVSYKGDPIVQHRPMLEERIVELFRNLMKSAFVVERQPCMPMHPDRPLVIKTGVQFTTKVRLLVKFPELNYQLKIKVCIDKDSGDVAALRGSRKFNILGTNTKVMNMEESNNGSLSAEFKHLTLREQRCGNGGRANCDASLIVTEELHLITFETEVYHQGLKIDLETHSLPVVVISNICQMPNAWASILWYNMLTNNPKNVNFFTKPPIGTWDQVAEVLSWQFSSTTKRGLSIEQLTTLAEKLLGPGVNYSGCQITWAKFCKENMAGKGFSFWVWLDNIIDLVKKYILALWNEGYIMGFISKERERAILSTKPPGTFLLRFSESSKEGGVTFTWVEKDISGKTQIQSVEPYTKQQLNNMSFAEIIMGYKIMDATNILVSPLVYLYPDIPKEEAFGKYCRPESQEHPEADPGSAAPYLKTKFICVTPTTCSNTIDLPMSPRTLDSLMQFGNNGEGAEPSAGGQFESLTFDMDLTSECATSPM", "data": [{"substance": "mutated mouse PRMT2-Flag lacking functional Ado-Met domain (alanine for 145-GCGTG-149)", "values": [{"measurement": "in vitro methylation with [3H]-AdoMet", "result": "transfection of neither vector alone nor mutated PRMT2-Flag cDNA induced methylation of GST-Stat3 (FIG. 20A, lanes 4 and 5)"}]}]}
